Laboratory results from the domain aggregation screens of Martell et al. (2025).
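Also: 20 min heating vs room temperature control held 20 min.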

Test: soluble fraction after stress (log2 fold change); higher = more stays soluble; pooled small domains, quantitative proteomics
Settings: stress: 75 degC
For “HMDSMATVPDLVGKTEDEAKALANDAHLGVQMAGEEASDQEKGKISRQETAAGTQVAEYTTVKYWVSTGTQ”, the “soluble fraction (log2)” value was 0.763.
In the case of “HMDSPALAIPSSAILRDGLEHIFFRQDPSDPDQVIRVVADLGLSDGRWTVVRSGLERTDQVVLSGA”, the “soluble fraction (log2)” value is reported as 0.181.
In the case of “HMDSQKKNETLSSTADEIIKNYAGKRDLSEESMEQLEQFQKDMRGADVNIFTAAQIRMLDQIFQENLH”, the “soluble fraction (log2)” value is reported as 0.221.
With “HMDSSLVWVDYLLGSKLTKLNSSNELTGPGASAKTIGAFLGENKQSFDLYIESVHNARDTYSDILTHGT” the “soluble fraction (log2)” value was -0.186.
For “HMDSSSYSAKVGTLIQETRQARGMTQAQLAQALGTSQSAINRIEKGGQNISLDMLNRISEVLSSQIVTLNP”, the “soluble fraction (log2)” value was -0.0411.
With “HMDSVAKSFLAEIERFLETAGLEPTTLGKQALGDPSFVFDLRKGRSPSTRTIGKLRVWMQQQNALS” the “soluble fraction (log2)” value was -1.34.
For “HMDSVTLGISFNGKTRFTLDFPADAAAADIEKAALEAEQSQRYLEGMTVAKVIVVPGRIVNIVLK”, the “soluble fraction (log2)” value was -2.23.
With “HMDSVTMYATTGVNVRSGPSTSYSIVGGLDRGDKVTRIGTSGNWTKVVWGNGSAYVFSKYLQTGY” the “soluble fraction (log2)” value was -3.04.
For “HMDTAEQNWRLRGKLVTLGLNARQIRMALASHAPRYLEDNIAVVERDLAAGKVRNLPAYLLAALREDYRP”, the “soluble fraction (log2)” value was -1.86.
With “HMDTEIGDILALRQIMELLDEKDRQLIIMRYFQGLTQSVTAKNLNMTQVQVSRREKKLLTFMREQLL” the “soluble fraction (log2)” value was -0.702.
In the case of “HMDTEVVMINVVGMNIDKAKNSLNHKNILYKISYQDVSEGENNVVLKQSISSNTKIKKGQVVSLVVGKLN”, the “soluble fraction (log2)” value is reported as -1.42.
In the case of “HMDTFEITVEESDIDKRIDLFLAGNLESFSRSYIQDLIKKGKATISGKPVKANYRLREGDSVVLSIPKPK”, the “soluble fraction (log2)” value is reported as -0.209.
In the case of “HMDTGKLQSLVGSRGVAHTVLRPSGKVMIGDDVYPAVAETGFIPRGTAIVVRREEQGQLYVVEARK”, the “soluble fraction (log2)” value is reported as -0.318.
With “HMDTGPISGQVEADRVEVHGHLDGKISAQNVVVGQTGVVKGDIEFGENLRTEEGADIEGYIK” the “soluble fraction (log2)” value was 0.0611.
In the case of “HMDTGPSFATRRQEAFNALTQIAASNKEFMNVAGDVLWKVADFPEAQILAQRWRRIIPPNVLGEA”, the “soluble fraction (log2)” value is reported as -0.465.
For “HMDTIAEFIAELTPLEQKVFHVYYEKGQSLKDTAQQAEITSTSARGALDRIRAKGRHFHLAVILFIG”, the “soluble fraction (log2)” value was -0.7.
In the case of “HMDTINEYERNILSLITSKPGISAVQIAADTDKSIITAKRGIKTLVDGKLIEYRGSKKTGGYFLLTQS”, the “soluble fraction (log2)” value is reported as -0.41.
For “HMDTIYMVVAKNIKYYRLIKSMSKKDLAEAVNVTPMAISNYENGKRKPEIDILKKIANVLGVRVVDFLTVR”, the “soluble fraction (log2)” value was -4.45.
With “HMDTKLFNYGVGKHAYISWNEGGKRTAYIGFGNDGADVLTINNVKQGGSLGIYKDKITLNSQTVLTD” the “soluble fraction (log2)” value was -0.038.
In the case of “HMDTLHGRILEEFSRKIVDGTWPPGFSLPKETELADQYGVSRMTMNKVLTRLASDGFVIRRKRSGTVVAQP”, the “soluble fraction (log2)” value is reported as -1.34.
For “HMDTLTRAMVWTIIARAEGVDTTGGATWYAKAQEWVTAKGISDGENPNAAITRQELVTMLYRLAGEPAV”, the “soluble fraction (log2)” value was -3.56.
In the case of “HMDTMQQESMDTKSILATALMELTSRKNFAKITIADITHVSGFNRQTFYYHFRDKYELLSWIY”, the “soluble fraction (log2)” value is reported as -0.0387.
For “HMDTNRIIGNKIYQLRRSINMTQQELAEKVGISVTFLSEIENGRKSMSVDTLIKLSKGLQVSLDTIVF”, the “soluble fraction (log2)” value was -4.31.
With “HMDTPVYYYVNGNGVRMRKDASLESDILILLYKGTKVEYVDVKGEWIKVKYNNEIGYIRNDLLSAEMPD” the “soluble fraction (log2)” value was -0.784.
In the case of “HMDTQITPNKAKEIALAHAGVTEAAANFKKIKLDNKNGKSIYEIEFIANKSRYEFIVDAKNGSIIKFEK”, the “soluble fraction (log2)” value is reported as -0.378.
With “HMDTRKEREIALYEAALRLIASGVNPAAMKVQQIADEAGIGKGTVYEYFASKEEILHGMALH” the “soluble fraction (log2)” value was -0.218.
In the case of “HMDTTLFGLFQNVILTQEDYEELSRTIVEDLDGLIDRLSAYMTSTGKTYKNHKATLLSWYLQDEKKFK”, the “soluble fraction (log2)” value is reported as -1.78.
With “HMDTVEALTEQLKKLDKRGEGQIPAPEFKQYMMNMGGKMTAEELDEMMKVADPGKEGVVNIAEFADAL” the “soluble fraction (log2)” value was 0.313.
